Measured values as given in paper PMC2361330 (British Journal of Cancer, 2006).

Molecular target: Vascular endothelial growth factor receptor 1 (human (endogenous in HT29), UniProt P17948 27-1338)
Experiment: cell-based or functional assay

Vascular endothelial growth factor receptor 1, sequence (P17948 27-1338): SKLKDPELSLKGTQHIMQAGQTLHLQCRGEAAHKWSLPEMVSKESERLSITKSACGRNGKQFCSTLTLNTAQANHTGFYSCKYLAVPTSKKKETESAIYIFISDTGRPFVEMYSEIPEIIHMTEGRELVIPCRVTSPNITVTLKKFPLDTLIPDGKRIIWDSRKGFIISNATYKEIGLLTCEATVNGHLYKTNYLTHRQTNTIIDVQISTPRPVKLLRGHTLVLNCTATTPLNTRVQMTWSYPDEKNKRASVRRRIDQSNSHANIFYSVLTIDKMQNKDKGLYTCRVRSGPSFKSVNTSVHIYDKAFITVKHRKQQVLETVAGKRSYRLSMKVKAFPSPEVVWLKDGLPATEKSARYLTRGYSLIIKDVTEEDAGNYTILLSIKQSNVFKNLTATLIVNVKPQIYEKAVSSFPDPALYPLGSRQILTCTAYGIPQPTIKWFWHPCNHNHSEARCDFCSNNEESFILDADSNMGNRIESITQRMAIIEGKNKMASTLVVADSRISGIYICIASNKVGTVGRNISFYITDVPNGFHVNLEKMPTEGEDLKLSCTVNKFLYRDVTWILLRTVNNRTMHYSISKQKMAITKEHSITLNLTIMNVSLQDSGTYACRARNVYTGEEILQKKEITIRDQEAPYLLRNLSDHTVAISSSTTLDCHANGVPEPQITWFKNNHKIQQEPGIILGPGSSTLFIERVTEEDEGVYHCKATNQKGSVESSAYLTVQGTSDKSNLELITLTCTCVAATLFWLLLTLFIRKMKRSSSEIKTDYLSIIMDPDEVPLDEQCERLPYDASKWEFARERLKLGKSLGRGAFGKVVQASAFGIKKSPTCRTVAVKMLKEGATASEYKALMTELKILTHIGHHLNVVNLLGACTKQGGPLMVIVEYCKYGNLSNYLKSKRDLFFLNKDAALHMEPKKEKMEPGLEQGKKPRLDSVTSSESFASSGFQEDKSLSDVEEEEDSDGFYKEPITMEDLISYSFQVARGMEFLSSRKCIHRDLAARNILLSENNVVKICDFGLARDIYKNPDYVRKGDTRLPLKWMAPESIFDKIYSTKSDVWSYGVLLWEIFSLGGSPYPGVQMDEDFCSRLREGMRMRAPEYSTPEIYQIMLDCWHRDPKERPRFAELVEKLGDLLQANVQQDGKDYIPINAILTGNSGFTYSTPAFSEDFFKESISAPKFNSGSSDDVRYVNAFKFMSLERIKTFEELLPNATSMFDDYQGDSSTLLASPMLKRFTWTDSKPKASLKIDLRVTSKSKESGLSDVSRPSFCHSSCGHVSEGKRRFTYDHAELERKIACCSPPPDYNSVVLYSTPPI

B1: Yes (enzyme)
chain: not shown
  Yes kinase activity by immune complex kinase assay in HT29 cells treated with VEGF-A (10 ng ml^−1) for 0-15 min: ~2.5 fold
